Data from patent publication US20180155451A1 (published 2018).

T1: FcγRIIa R (extracellular domain with a His tag at the C terminus) (human, UniProt P12318 34-217)
T1 construct: extracellular domain; expressed in FreeStyle293 cells; also called FcgRIIa R; FcγRIIa type R; not shown: His tag at the C terminus
T1 sequence (looked up): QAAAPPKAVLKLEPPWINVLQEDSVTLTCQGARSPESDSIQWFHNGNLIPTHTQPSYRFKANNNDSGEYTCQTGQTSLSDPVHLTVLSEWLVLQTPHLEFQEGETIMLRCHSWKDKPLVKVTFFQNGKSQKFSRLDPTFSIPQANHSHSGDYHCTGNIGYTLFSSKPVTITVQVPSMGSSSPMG

B1: GpH7-B3 variant S337_02A/GpL16-k0 (antibody, human IgG1, kappa)
heavy: not shown
light: DIVMTQSPLSLPVTPGEPASISCQASESLVHSNRNTYLHWYLQKPGQSPQLLIYKVSNRFSGVPDRFSGSGSGTDFTLKISRVEAEDVGVYYCSQNTHVPPTFGQGTKVEIERTVAAPSVFIFPPSDEQLKSGTASVVCLLNNFYPREAKVQWKVDNALQSGNSQESVTEQDSKDSTYSLSSTLTLSKADYEKHKVYACEVTHQGLSSPVTKSFNRGEC
notes: homodimerized; mutation in both H chains; also called Ho Ab
B2: GpH7-B3 variant A327_09D/GpL16-k0 (antibody, human IgG1, kappa)
heavy: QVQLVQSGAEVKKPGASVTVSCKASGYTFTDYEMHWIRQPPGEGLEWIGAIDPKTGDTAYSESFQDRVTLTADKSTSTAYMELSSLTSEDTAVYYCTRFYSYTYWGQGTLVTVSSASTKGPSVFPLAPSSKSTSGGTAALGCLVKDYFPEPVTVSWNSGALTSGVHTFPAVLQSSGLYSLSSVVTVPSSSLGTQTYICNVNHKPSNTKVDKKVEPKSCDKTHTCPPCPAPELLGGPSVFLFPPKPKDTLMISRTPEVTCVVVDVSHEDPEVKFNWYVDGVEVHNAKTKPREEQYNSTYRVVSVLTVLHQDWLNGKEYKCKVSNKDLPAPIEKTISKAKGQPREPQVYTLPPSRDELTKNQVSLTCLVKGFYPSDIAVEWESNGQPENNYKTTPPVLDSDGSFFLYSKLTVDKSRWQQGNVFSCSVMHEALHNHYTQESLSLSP
light: B1 light
notes: as for B1
B3: GpH7-B3 variant A327_10E/GpL16-k0 (antibody, human IgG1, kappa)
heavy: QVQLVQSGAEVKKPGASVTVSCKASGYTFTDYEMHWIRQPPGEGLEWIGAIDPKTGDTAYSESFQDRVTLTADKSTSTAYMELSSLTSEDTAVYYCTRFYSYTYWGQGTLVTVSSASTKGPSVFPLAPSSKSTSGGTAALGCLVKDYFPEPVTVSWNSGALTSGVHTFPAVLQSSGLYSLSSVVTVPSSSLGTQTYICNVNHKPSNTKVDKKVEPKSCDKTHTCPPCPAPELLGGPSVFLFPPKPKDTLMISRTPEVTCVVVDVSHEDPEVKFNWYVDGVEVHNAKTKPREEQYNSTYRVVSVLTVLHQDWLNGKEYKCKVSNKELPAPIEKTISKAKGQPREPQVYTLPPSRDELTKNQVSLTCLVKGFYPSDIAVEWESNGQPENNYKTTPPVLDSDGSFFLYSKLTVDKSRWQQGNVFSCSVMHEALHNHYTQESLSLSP
light: B1 light
notes: as for B1
B4: GpH7-B3 variant A330_01G/GpL16-k0 (antibody, human IgG1, kappa)
heavy: not shown
light: B1 light
notes: as for B1
B5: GpH7-B3 variant A330_12R/GpL16-k0 (antibody, human IgG1, kappa)
heavy: not shown
light: B1 light
notes: as for B1
B6: GpH7-B3 variant G237_04F/GpL16-k0 (antibody, human IgG1, kappa)
heavy: not shown
light: B1 light
notes: as for B1
B7: GpH7-B3 variant G237_20W/GpL16-k0 (antibody, human IgG1, kappa)
heavy: not shown
light: B1 light
notes: as for B1
B8: GpH7-B3 variant H268_01G/GpL16-k0 (antibody, human IgG1, kappa)
heavy: not shown
light: B1 light
notes: as for B1
B9: GpH7-B3 variant I332_06M/GpL16-k0 (antibody, human IgG1, kappa)
heavy: not shown
light: B1 light
notes: as for B1
B10: GpH7-B3 variant I336_08L/GpL16-k0 (antibody, human IgG1, kappa)
heavy: not shown
light: B1 light
notes: as for B1
B11: GpH7-B3 variant K326_03V/GpL16-k0 (antibody, human IgG1, kappa)
heavy: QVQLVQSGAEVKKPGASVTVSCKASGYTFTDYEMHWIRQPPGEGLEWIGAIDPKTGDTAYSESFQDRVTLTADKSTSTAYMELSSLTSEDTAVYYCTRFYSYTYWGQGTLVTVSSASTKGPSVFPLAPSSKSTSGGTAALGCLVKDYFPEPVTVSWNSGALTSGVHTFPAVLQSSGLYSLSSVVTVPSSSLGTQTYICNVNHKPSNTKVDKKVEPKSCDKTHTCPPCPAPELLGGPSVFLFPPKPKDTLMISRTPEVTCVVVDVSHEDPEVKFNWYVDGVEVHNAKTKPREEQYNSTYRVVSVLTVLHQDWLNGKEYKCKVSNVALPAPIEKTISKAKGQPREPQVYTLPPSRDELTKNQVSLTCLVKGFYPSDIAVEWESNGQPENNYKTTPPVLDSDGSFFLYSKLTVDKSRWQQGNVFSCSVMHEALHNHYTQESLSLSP
light: B1 light
notes: as for B1
B12: GpH7-B3 variant K326_04F/GpL16-k0 (antibody, human IgG1, kappa)
heavy: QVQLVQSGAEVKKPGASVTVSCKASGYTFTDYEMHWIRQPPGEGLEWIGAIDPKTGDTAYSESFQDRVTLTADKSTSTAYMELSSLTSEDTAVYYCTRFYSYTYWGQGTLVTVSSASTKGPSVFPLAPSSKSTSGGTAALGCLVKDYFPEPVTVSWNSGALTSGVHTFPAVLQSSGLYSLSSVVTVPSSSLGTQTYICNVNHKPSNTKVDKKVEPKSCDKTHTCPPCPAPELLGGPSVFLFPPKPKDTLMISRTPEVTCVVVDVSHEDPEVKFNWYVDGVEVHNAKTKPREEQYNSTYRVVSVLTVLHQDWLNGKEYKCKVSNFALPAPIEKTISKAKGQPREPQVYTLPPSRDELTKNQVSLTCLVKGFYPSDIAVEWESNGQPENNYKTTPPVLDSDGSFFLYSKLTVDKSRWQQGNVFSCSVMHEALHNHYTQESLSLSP
light: B1 light
notes: as for B1
B13: GpH7-B3 variant K326_07I/GpL16-k0 (antibody, human IgG1, kappa)
heavy: not shown
light: B1 light
notes: as for B1
B14: GpH7-B3 variant K326_08L/GpL16-k0 (antibody, human IgG1, kappa)
heavy: not shown
light: B1 light
notes: as for B1
B15: GpH7-B3 variant K326_15Y/GpL16-k0 (antibody, human IgG1, kappa)
heavy: not shown
light: B1 light
notes: as for B1
B16: GpH7-B3 variant K326_20W/GpL16-k0 (antibody, human IgG1, kappa)
heavy: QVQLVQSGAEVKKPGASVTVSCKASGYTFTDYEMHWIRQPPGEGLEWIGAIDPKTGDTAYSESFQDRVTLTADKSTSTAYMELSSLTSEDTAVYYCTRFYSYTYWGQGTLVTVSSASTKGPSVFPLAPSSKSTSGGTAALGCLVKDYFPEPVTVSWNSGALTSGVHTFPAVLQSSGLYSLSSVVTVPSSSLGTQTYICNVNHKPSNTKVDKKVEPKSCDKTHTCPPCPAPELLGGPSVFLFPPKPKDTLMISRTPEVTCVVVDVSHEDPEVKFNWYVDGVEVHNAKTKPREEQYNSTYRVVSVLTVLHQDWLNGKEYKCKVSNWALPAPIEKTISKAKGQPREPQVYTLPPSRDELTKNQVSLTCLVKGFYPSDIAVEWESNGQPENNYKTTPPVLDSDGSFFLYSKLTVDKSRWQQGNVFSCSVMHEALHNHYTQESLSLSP
light: B1 light
notes: as for B1
B17: GpH7-B3 variant K334_02A/GpL16-k0 (antibody, human IgG1, kappa)
heavy: not shown
light: B1 light
notes: as for B1
B18: GpH7-B3 variant K334_04F/GpL16-k0 (antibody, human IgG1, kappa)
heavy: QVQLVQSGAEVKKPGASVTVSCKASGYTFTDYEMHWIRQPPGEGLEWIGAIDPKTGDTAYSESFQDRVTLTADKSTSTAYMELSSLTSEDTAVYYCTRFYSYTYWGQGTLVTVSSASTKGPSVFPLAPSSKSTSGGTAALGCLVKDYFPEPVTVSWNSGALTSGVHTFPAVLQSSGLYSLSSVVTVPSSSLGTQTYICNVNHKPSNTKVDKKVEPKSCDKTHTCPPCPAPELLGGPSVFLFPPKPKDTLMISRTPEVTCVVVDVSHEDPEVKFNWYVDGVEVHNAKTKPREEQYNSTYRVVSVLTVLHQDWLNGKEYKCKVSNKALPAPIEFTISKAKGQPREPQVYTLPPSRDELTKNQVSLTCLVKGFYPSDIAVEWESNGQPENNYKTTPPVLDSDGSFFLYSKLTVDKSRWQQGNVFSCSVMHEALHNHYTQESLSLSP
light: B1 light
notes: as for B1
B19: GpH7-B3 variant K334_05P/GpL16-k0 (antibody, human IgG1, kappa)
heavy: not shown
light: B1 light
notes: as for B1
B20: GpH7-B3 variant K334_08L/GpL16-k0 (antibody, human IgG1, kappa)
heavy: not shown
light: B1 light
notes: as for B1
B21: GpH7-B3 variant K334_10E/GpL16-k0 (antibody, human IgG1, kappa)
heavy: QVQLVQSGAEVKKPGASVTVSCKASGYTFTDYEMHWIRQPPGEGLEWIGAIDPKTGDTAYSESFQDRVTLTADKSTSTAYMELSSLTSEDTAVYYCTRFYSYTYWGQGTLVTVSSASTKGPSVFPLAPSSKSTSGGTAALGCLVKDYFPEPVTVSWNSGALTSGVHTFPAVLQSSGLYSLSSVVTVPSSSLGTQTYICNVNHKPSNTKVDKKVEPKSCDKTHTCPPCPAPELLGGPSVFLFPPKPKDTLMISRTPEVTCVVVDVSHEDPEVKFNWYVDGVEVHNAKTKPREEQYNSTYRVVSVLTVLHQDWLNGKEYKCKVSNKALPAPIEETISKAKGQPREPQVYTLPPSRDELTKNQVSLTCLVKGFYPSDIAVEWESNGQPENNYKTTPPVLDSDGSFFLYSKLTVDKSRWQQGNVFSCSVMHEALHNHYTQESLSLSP
light: B1 light
notes: as for B1
B22: GpH7-B3 variant K334_13S/GpL16-k0 (antibody, human IgG1, kappa)
heavy: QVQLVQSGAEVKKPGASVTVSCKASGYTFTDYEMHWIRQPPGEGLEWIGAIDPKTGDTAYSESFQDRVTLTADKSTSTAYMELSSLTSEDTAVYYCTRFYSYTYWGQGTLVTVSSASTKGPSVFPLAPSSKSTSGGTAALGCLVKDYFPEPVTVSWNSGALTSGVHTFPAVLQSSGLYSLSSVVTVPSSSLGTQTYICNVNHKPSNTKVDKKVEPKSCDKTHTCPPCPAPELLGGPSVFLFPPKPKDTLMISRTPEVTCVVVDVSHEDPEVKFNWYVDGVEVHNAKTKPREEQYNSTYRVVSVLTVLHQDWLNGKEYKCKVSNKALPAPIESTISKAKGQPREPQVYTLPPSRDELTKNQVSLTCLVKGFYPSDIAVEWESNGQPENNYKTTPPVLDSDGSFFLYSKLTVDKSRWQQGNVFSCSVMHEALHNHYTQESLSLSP
light: B1 light
notes: as for B1
B23: GpH7-B3 variant K334_19Q/GpL16-k0 (antibody, human IgG1, kappa)
heavy: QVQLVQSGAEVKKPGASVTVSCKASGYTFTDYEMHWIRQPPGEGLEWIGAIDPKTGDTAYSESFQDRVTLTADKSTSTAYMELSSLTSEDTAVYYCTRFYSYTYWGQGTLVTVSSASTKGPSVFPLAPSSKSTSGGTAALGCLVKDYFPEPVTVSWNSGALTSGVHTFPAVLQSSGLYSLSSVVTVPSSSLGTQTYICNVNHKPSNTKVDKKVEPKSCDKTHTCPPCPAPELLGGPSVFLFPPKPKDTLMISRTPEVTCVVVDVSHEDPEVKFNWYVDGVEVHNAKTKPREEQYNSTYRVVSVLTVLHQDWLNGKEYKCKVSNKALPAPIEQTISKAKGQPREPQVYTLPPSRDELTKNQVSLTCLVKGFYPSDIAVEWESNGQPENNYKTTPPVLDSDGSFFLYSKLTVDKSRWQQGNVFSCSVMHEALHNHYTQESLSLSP
light: B1 light
notes: as for B1
B24: GpH7-B3 variant L235_20W/GpL16-k0 (antibody, human IgG1, kappa)
heavy: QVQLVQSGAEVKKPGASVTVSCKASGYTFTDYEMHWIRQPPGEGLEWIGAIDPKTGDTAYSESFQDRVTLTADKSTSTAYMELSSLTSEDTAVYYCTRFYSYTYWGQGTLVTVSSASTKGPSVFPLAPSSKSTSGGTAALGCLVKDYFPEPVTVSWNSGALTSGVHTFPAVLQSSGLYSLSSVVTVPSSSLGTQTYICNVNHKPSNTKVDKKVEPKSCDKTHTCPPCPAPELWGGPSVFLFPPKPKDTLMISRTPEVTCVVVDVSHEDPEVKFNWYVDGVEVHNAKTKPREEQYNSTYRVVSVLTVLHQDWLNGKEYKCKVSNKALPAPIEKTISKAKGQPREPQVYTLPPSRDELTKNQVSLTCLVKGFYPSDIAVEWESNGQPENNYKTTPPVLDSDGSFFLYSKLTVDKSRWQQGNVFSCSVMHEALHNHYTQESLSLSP
light: B1 light
notes: as for B1
B25: GpH7-B3 variant L328_13S/GpL16-k0 (antibody, human IgG1, kappa)
heavy: not shown
light: B1 light
notes: as for B1
B26: GpH7-B3 variant L328_14T/GpL16-k0 (antibody, human IgG1, kappa)
heavy: not shown
light: B1 light
notes: as for B1
B27: GpH7-B3 variant P238_03V/GpL16-k0 (antibody, human IgG1, kappa)
heavy: not shown
light: B1 light
notes: as for B1
B28: GpH7-B3 variant P238_04F/GpL16-k0 (antibody, human IgG1, kappa)
heavy: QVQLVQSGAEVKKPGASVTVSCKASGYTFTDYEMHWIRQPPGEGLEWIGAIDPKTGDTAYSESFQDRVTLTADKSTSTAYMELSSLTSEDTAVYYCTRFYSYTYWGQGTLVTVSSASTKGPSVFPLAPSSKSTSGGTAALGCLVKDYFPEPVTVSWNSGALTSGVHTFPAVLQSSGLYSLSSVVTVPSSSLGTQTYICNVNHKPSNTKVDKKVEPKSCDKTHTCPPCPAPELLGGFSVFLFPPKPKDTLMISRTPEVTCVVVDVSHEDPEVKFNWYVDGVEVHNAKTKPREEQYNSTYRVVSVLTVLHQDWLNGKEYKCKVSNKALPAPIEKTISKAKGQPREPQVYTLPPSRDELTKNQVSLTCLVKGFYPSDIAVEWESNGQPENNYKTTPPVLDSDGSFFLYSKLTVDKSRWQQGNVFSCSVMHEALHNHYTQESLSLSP
light: B1 light
notes: as for B1

What follows are binders tested against T1, FcγRIIa R (extracellular domain with a …) (assay: SPR Biacore, relative binding).
B1 was tested, and the Ho/Con_2aR was 102 % of GpH7-B3/GpL16-k0 (=100).
B2 was tested, and the Ho/Con_2aR was 120 % of GpH7-B3/GpL16-k0 (=100).
In the case of B3, the Ho/Con_2aR is reported as 104 % of GpH7-B3/GpL16-k0 (=100).
In the case of B4, the Ho/Con_2aR is reported as 106 % of GpH7-B3/GpL16-k0 (=100).
B5 was tested, and the Ho/Con_2aR was 101 % of GpH7-B3/GpL16-k0 (=100).
With B6 the Ho/Con_2aR was 113 % of GpH7-B3/GpL16-k0 (=100).
With B7 the Ho/Con_2aR was 107 % of GpH7-B3/GpL16-k0 (=100).
In the case of B8, the Ho/Con_2aR is reported as 122 % of GpH7-B3/GpL16-k0 (=100).
In the case of B9, the Ho/Con_2aR is reported as 105 % of GpH7-B3/GpL16-k0 (=100).
B10 was tested, and the Ho/Con_2aR was 105 % of GpH7-B3/GpL16-k0 (=100).
B11 was tested, and the Ho/Con_2aR was 139 % of GpH7-B3/GpL16-k0 (=100).
With B12 the Ho/Con_2aR was 133 % of GpH7-B3/GpL16-k0 (=100).
In the case of B13, the Ho/Con_2aR is reported as 133 % of GpH7-B3/GpL16-k0 (=100).
For B14, the Ho/Con_2aR was 131 % of GpH7-B3/GpL16-k0 (=100).
B15 was tested, and the Ho/Con_2aR was 134 % of GpH7-B3/GpL16-k0 (=100).
In the case of B16, the Ho/Con_2aR is reported as 120 % of GpH7-B3/GpL16-k0 (=100).
With B17 the Ho/Con_2aR was 100 % of GpH7-B3/GpL16-k0 (=100).
With B18 the Ho/Con_2aR was 110 % of GpH7-B3/GpL16-k0 (=100).
For B19, the Ho/Con_2aR was 102 % of GpH7-B3/GpL16-k0 (=100).
With B20 the Ho/Con_2aR was 105 % of GpH7-B3/GpL16-k0 (=100).
B21 was tested, and the Ho/Con_2aR was 106 % of GpH7-B3/GpL16-k0 (=100).
In the case of B22, the Ho/Con_2aR is reported as 106 % of GpH7-B3/GpL16-k0 (=100).
In the case of B23, the Ho/Con_2aR is reported as 108 % of GpH7-B3/GpL16-k0 (=100).
In the case of B24, the Ho/Con_2aR is reported as 114 % of GpH7-B3/GpL16-k0 (=100).
B25 was tested, and the Ho/Con_2aR was 108 % of GpH7-B3/GpL16-k0 (=100).
With B26 the Ho/Con_2aR was 118 % of GpH7-B3/GpL16-k0 (=100).
With B27 the Ho/Con_2aR was 116 % of GpH7-B3/GpL16-k0 (=100).
With B28 the Ho/Con_2aR was 146 % of GpH7-B3/GpL16-k0 (=100).
